# ± gives the standard deviation of the averaged measurements.
# B1: library; a variant is named by its letters at N, in order (parent)
# chain: GCUGUCACCGGUGCUUGGUACGUUAUAUUCAGCCGGUCUGAUGAGUCUNNNNNNAGACGAAACAGC
# Key:
# (6R,S)-folinic acid [1] = variants of: B1; experiment: normalized RNA/DNA level without ligand (relative to sTRSVctl = 100) (log10 (% of sTRSVctl)); HEK293T overexpressing SLC46A1; higher = less ribozyme self-cleavage, higher mRNA level; details: without (6R,S)-folinic acid; ligand present: no
# How it was run: (§1)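 Library plasmids carrying ribozyme switches linked to mCherry, or to eGFP in some ligand experiments, were transfected into HEK293T at 4 µg per 6-well well, with any ligand added 1 h earlier. Seventy-two hours on, total RNA was extracted with EDTA and reverse-transcribed, amplified, barcoded and sequenced. RNA level was RNA over DNA reads normalized to a spiked-in non-cleaving sequence or to the top sequences, then scaled and log-transformed. The top set was 25 sequences, the transform was ×100 and log10, and sequences needed ≥100 DNA reads.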
# (6R,S)-folinic acid [2] = variants of: B1; experiment: normalized RNA/DNA level with ligand (relative to sTRSVctl = 100) (log10 (% of sTRSVctl)); HEK293T overexpressing SLC46A1; ligand concentration (+) RNA-Seq: 6 mM; higher = less ribozyme self-cleavage, higher mRNA level; details: with (6R,S)-folinic acid; ligand present: yes
# How it was run: as §1
Variant,"normalized RNA/DNA level without ligand (log10) ((6R,S)-folinic acid [1])","normalized RNA/DNA level with ligand (log10) ((6R,S)-folinic acid [2])"
GCUGUCACCGGUGCUUGGUACGUUAUAUUCAGCCGGUCUGAUGAGUCUUCGCCCAGACGAAACAGC [UCGCCC],2.05 ± 0.039,2.04 ± 0.033
GCUGUCACCGGUGCUUGGUACGUUAUAUUCAGCCGGUCUGAUGAGUCUUCGCCGAGACGAAACAGC [UCGCCG],2.016 ± 0.0047,2.05 ± 0.032
GCUGUCACCGGUGCUUGGUACGUUAUAUUCAGCCGGUCUGAUGAGUCUUCGCCUAGACGAAACAGC [UCGCCU],2.08 ± 0.043,2.082 ± 0.016
GCUGUCACCGGUGCUUGGUACGUUAUAUUCAGCCGGUCUGAUGAGUCUACGCGCAGACGAAACAGC [ACGCGC],1.997 ± 0.0046,2.01 ± 0.059
GCUGUCACCGGUGCUUGGUACGUUAUAUUCAGCCGGUCUGAUGAGUCUACGCGAAGACGAAACAGC [ACGCGA],1.986 ± 0.011,2.042 ± 0.0061
GCUGUCACCGGUGCUUGGUACGUUAUAUUCAGCCGGUCUGAUGAGUCUGCGCCCAGACGAAACAGC [GCGCCC],2.07 ± 0.023,2.04 ± 0.036
GCUGUCACCGGUGCUUGGUACGUUAUAUUCAGCCGGUCUGAUGAGUCUGCGCCGAGACGAAACAGC [GCGCCG],2.059 ± 0.0092,2.046 ± 0.0097
GCUGUCACCGGUGCUUGGUACGUUAUAUUCAGCCGGUCUGAUGAGUCUGCGCCUAGACGAAACAGC [GCGCCU],2.1 ± 0.023,2.09 ± 0.047
GCUGUCACCGGUGCUUGGUACGUUAUAUUCAGCCGGUCUGAUGAGUCUCCGCCCAGACGAAACAGC [CCGCCC],2.07 ± 0.025,2.04 ± 0.073
GCUGUCACCGGUGCUUGGUACGUUAUAUUCAGCCGGUCUGAUGAGUCUCCGCCUAGACGAAACAGC [CCGCCU],2.087 ± 0.0066,2.08 ± 0.03
GCUGUCACCGGUGCUUGGUACGUUAUAUUCAGCCGGUCUGAUGAGUCUCCGCCGAGACGAAACAGC [CCGCCG],2.06 ± 0.024,2.08 ± 0.03
GCUGUCACCGGUGCUUGGUACGUUAUAUUCAGCCGGUCUGAUGAGUCUUCGCGCAGACGAAACAGC [UCGCGC],2.046 ± 0.014,2.03 ± 0.03
GCUGUCACCGGUGCUUGGUACGUUAUAUUCAGCCGGUCUGAUGAGUCUUCGCGAAGACGAAACAGC [UCGCGA],2.0026 ± 0.0006,2.02 ± 0.068
GCUGUCACCGGUGCUUGGUACGUUAUAUUCAGCCGGUCUGAUGAGUCUCCGCGCAGACGAAACAGC [CCGCGC],2.067 ± 0.012,2.05 ± 0.068
GCUGUCACCGGUGCUUGGUACGUUAUAUUCAGCCGGUCUGAUGAGUCUCCGCGGAGACGAAACAGC [CCGCGG],2.031 ± 0.0025,2.0168 ± 0.0019
GCUGUCACCGGUGCUUGGUACGUUAUAUUCAGCCGGUCUGAUGAGUCUCCGCGAAGACGAAACAGC [CCGCGA],2.06 ± 0.024,2.06 ± 0.034
GCUGUCACCGGUGCUUGGUACGUUAUAUUCAGCCGGUCUGAUGAGUCUACGCCGAGACGAAACAGC [ACGCCG],2.0192 ± 0.00023,2.029 ± 0.013
GCUGUCACCGGUGCUUGGUACGUUAUAUUCAGCCGGUCUGAUGAGUCUACGCCCAGACGAAACAGC [ACGCCC],2.051 ± 0.0035,2.03 ± 0.059
GCUGUCACCGGUGCUUGGUACGUUAUAUUCAGCCGGUCUGAUGAGUCUGCGCGCAGACGAAACAGC [GCGCGC],2.055 ± 0.0073,2.001 ± 0.011
GCUGUCACCGGUGCUUGGUACGUUAUAUUCAGCCGGUCUGAUGAGUCUGCGCGAAGACGAAACAGC [GCGCGA],2.047 ± 0.011,2.052 ± 0.018
GCUGUCACCGGUGCUUGGUACGUUAUAUUCAGCCGGUCUGAUGAGUCUGCGCGGAGACGAAACAGC [GCGCGG],2.064 ± 0.0074,2.03 ± 0.031

# Source: the supplement of paper PMC6757056
